The chains are these.
B1: Elp2 (endogenous, in the Elp123 subcomplex) (natural protein, UniProt P42935 1-788, looked up)
chain: MVECITPEAIFIGANKQTQVSDIHKVKKIVAFGAGKTIALWDPIEPNNKGVYATLKGHEAEVTCVRFVPDSDFMVSASEDHHVKIWKFTDYSHLQCIQTIQHYSKTIVALSALPSLISVGCADGTISIWRQNIQNDEFGLAHEFTIKKGFFYPLCLSLSKVEEKKYLLAIGGTNVNVFIASFILSDSGIEKCRVVAELEGHEDWVKSLAFRHQETPGDYLLCSGSQDRYIRLWRIRINDLIDDSEEDSKKLTLLSNKQYKFQIDDELRVGINFEALIMGHDDWISSLQWHESRLQLLAATADTSLMVWEPDETSGIWVCSLRLGEMSSKGASTATGSSGGFWSCLWFTHERMDFFLTNGKTGSWRMWATKDNIICDQRLGISGATKDVTDIAWSPSGEYLLATSLDQTTRLFAPWIYDASGRKREIATWHEFSRPQIHGYDMICVETVTDTRFVSGGDEKILRSFDLPKGVAGMLQKFVGIQFEEKSEMPDSATVPVLGLSNKAGEDDANEDDEEEEGGNKETPDITDPLSLLECPPMEDQLQRHLLWPEVEKLYGHGFEITCLDISPDQKLIASACRSNNVQNAVIRIFSTENWLEIKPALPFHSLTITRLKFSKDGKFLLSVCRDRKWALWERNMEDNTFELRFKNEKPHTRIIWDADWAPLEFGNVFVTASRDKTVKVWRHQKEPADDYVLEASIKHTKAVTAISIHDSMIREKILISVGLENGEIYLYSYTLGKFELITQLNEDITPADKITRLRWSHLKRNGKLFLGVGSSDLSTRIYSLAYE
B3: Elp1-3xFLAG (endogenous, in the Elp123 subcomplex) (natural protein, S. cerevisiae, UniProt Q06706 1-1349, looked up)
chain: MVEHDKSGSKRQELRSNMRNLITLNKGKFKPTASTAEGDEDDLSFTLLDSVFDTLSDSITCVLGSTDIGAIEVQQFMKDGSRNVLASFNIQTFDDKLLSFVHFADINQLVFVFEQGDIITATYDPVSLDPAETLIEIMGTIDNGIAAAQWSYDEETLAMVTKDRNVVVLSKLFEPISEYHLEVDDLKISKHVTVGWGKKETQFRGKGARAMEREALASLKASGLVGNQLRDPTMPYMVDTGDVTALDSHEITISWRGDCDYFAVSSVEEVPDEDDETKSIKRRAFRVFSREGQLDSASEPVTGMEHQLSWKPQGSLIASIQRKTDLGEEDSVDVIFFERNGLRHGEFDTRLPLDEKVESVCWNSNSEALAVVLANRIQLWTSKNYHWYLKQELYASDISYVKWHPEKDFTLMFSDAGFINIVDFAYKMAQGPTLEPFDNGTSLVVDGRTVNITPLALANVPPPMYYRDFETPGNVLDVACSFSNEIYAAINKDVLIFAAVPSIEEMKKGKHPSIVCEFPKSEFTSEVDSLRQVAFINDSIVGVLLDTDNLSRIALLDIQDITQPTLITIVEVYDKIVLLRSDFDYNHLVYETRDGTVCQLDAEGQLMEITKFPQLVRDFRVKRVHNTSAEDDDNWSAESSELVAFGITNNGKLFANQVLLASAVTSLEITDSFLLFTTAQHNLQFVHLNSTDFKPLPLVEEGVEDERVRAIERGSILVSVIPSKSSVVLQATRGNLETIYPRIMVLAEVRKNIMAKRYKEAFIVCRTHRINLDILHDYAPELFIENLEVFINQIGRVDYLNLFISCLSEDDVTKTKYKETLYSGISKSFGMEPAPLTEMQIYMKKKMFDPKTSKVNKICDAVLNVLLSNPEYKKKYLQTIITAYASQNPQNLSAALKLISELENSEEKDSCVTYLCFLQDVNVVYKSALSLYDVSLALLVAQKSQMDPREYLPFLQELQDNEPLRRKFLIDDYLGNYEKALEHLSEIDKDGNVSEEVIDYVESHDLYKHGLALYRYDSEKQNVIYNIYAKHLSSNQMYTDAAVAYEMLGKLKEAMGAYQSAKRWREAMSIAVQKFPEEVESVAEELISSLTFEHRYVDAADIQLEYLDNVKEAVALYCKAYRYDIASLVAIKAKKDELLEEVVDPGLGEGFGIIAELLADCKGQINSQLRRLRELRAKKEENPYAFYGQETEQADDVSVAPSETSTQESFFTRYTGKTGGTAKTGASRRTAKNKRREERKRARGKKGTIYEEEYLVQSVGRLIERLNQTKPDAVRVVEGLCRRNMREQAHQIQKNFVEVLDLLKANVKEIYSISEKDRERVNENGEVYYIPEIPVPEIHDFPKSHIVDF

What all share (test): cryo-EM structure
The target of series [1] is B3.
Series [2] has as its target B1.
Series [3] deals with the molecule itself.

Take B1: the binding result in series [1] was “binds”.

B2: Elp3 (endogenous, in the Elp123 subcomplex) (enzyme, UniProt Q02908 1-557, looked up)
chain: MARHGKGPKTNKKKLAPEKERFIQCCADITLELTDSLTSGTTREINLNGLITKYSKKYKLKQQPRLTDIINSIPDQYKKYLLPKLKAKPVRTASGIAVVAVMCKPHRCPHIAYTGNICVYCPGGPDSDFEYSTQSYTGYEPTSMRAIRARYDPYEQARGRVEQLKQLGHSIDKVEYVLMGGTFMSLPKEYREDFIVKLHNALSGFNGNDIDEAILYSQQSLTKCVGITIETRPDYCTQTHLDDMLKYGCTRLEIGVQSLYEDVARDTNRGHTVRSVCETFAVSKDAGYKVVSHMMPDLPNVGMERDIEQFKEYFENPDFRTDGLKIYPTLVIRGTGLYELWKTGRYKSYSANALVDLVARILALVPPWTRIYRVQRDIPMPLVTSGVDNGNLRELALARMKDLGTTCRDVRTREVGIQEVHHKVQPDQVELIRRDYYANGGWETFLSYEDPKKDILIGLLRLRKASKKYTYRKEFTSQRTSIVRELHVYGSVVPLHSRDPRKFQHQGFGTLLMEEAERIAKEEHGSEKISVISGVGVRNYYGKLGYELDGPYMSKRI
For the molecule B2, the binding result in series [1] and in series [2] was “binds” throughout. The stoichiometry N is the number of molecules, sites or subunits per partner or assembly. In the case of B3, the “stoichiometry N” value in series [3] is 2.

The values above are taken from PMC6620098 (Science Advances, 2019).
